These results are taken from paper PMC9501438 (International Journal of Molecular Sciences, 2022).

The target in assay [1] is T1, UBCH5B (UniProt P62837 1-147).
T1 construct: UBCH5B, E2 ubiquitin-conjugating enzyme, wild type; 15N-labelled in the NMR titrations; also called E2 enzyme UBCH5B; wt UBCH5B
The assay can be described thus: ITC; Microcal PEAQ ITC, 25 °C; 75-200 uM Arkadia polypeptide in the cell, 0.75-2 mM UBCH5B from the syringe in 2 uL injections; single site-binding model. As to conditions: both partners purified.

Assay [2] addresses T1, UBCH5B. The description is as above. As to conditions: both partners purified. This is another data set of the same source.

B1: Arkadia 90 aa polypeptide (domain or fragment)
chain: CTYPHKYKKVTTDWFSQRKLHCKQDGEEGTEEDTEEKCTICLSILEEGEDVRRLPCMHLFHQVCVDQWLITNKKCPICRVDIEAQLPSES
notes: Arkadia (RNF111), human, isoform 1, residues 905-994: NLS, the segment unique to isoform 1 and the RING-H2 domain; Cloned into pGEX-4T-1; also called Ark 90 aa; source: E. coli, purified (GST-trap, thrombin cleavage, Superdex 75 SEC); not shown: GST, N-terminal, cleaved
As a reminder, the Kd is a measure of binding affinity in units of concentration. The low end stands for tighter binding, the high end for weaker binding. In the assay with UBCH5B [1], B1 yielded a Kd of 23 µM. This counts as double-digit micromolar.

B2: Arkadia RING 68 aa (domain or fragment)
chain: KQDGEEGTEEDTEEKCTICLSILEEGEDVRRLPCMHLFHQVCVDQWLITNKKCPICRVDIEAQLPSES
notes: Cloned into pGEX-4T-1; also called Ark RING 68aa; Ark 68 aa; source: E. coli, purified (GST-trap, thrombin cleavage, Superdex 75 SEC); not shown: GST, N-terminal, cleaved
Molecule B2 showed a Kd in the assay with UBCH5B [2] of 32 µM.

B3: Arkadia 119 aa polypeptide (domain or fragment)
chain: FRGNFEELIHLEERLGNVNRGASQGTIERCTYPHKYKKVTTDWFSQRKLHCKQDGEEGTEEDTEEKCTICLSILEEGEDVRRLPCMHLFHQVCVDQWLITNKKCPICRVDIEAQLPSES
notes: Cloned into pGEX-4T-1; source: E. coli, purified (GST-trap, thrombin cleavage, Superdex 75 SEC); not shown: GST, N-terminal, cleaved
As to B3, in the assay with UBCH5B [2], the dissociation constant (Kd) was found to be 2.7 µM.
